In US20210277146A1 (BEIJING DONGFANG BIOTECH, published 2021):
Where a chain is given by its changes, count along the chain named. Each block holds one binder with its values, some of them ahead of it.

Experiments:
PCSK9-His [1] = target: T1, PCSK9-His (UniProt Q8NBP7 31-692); assay: ELISA, PCSK9-His coated, complete antibody titrated, anti-human IgG-HRP
T1 construct: also called antigen PCSK9-His; Proprotein Convertase Subtilisin/Kexin Type 9; not shown: His tag
Method: Coating PCSK9-His (300 ng/well/100 μl) by 0.01M PBS buffer at pH 7.2 overnight at 4° C., washing three times with PBST (1‰ Tween 20) of 300 μl/well, further adding PBST-4% milk, and blocking for one hour at 37° C.; adding complete antibodies DFSK9-1, DFSK9-12, DFSK9-13, DFSK9-14, DFSK9-15, DFSK9-16, DFSK9-17, DFSK9-18, DFSK9-19, DFSK9-20 and DFSK9-21 of different dilution degrees; the highest concentration of the 11 complete antibodies is 50 μg/ml, diluting at a five-time gradient, diluting for eight gradients for each complete antibody, and incubating for one hour at 37° C.; washing 5 times with PBST of 300 μl/well, further adding a goat-anti-human IgG-HRP secondary antibody diluted by PBST-4% milk at a ratio of 1:5000, and incubating for one hour at 37° C.; washing 5 times with PBST of 300 μl/well, developing by using a Tetramethylbenzidine (TMB) developing kit (100 μl/well), developing for 10 minutes at a room temperature, and terminating developing with 2M H₂SO₄ (50 μl/well); reading numbers by using a microplate reader at wavelengths of 450 nm and 630 nm; analyzing data and drawing pictures by using software GraphPad Prism 5Demo, and results are shown in FIG. 8 and table 2.

PCSK9-His [2] = target: T1, PCSK9-His; assay: competition ELISA, LDLR-Fc coated, PCSK9-His 2 ug/ml, antibody titrated, anti-His-HRP
Method: Coating LDLR-Fc (100 ng/well/100 μl) by 0.01M PBS buffer at pH 7.2 overnight at 4° C., washing three times with PBST, further adding PBST-4% milk, and blocking for one hour at 37° C.; further adding 2 μg/ml PCSK9-His (100 μlwell) diluted by PBST-4% milk, and incubating to one hour at 37° C.; adding complete antibodies DFSK9-1, DFSK9-12, DFSK9-13, DFSK9-14, DFSK9-15, DFSK9-16, DFSK9-17, DFSK9-18, DFSK9-19, DFSK9-20 and DFSK9-21 of different dilution degrees; the highest concentration of the 11 complete antibodies is 100 μg/ml, diluting at a five-time gradient, diluting for eight gradients for each complete antibody, and incubating for 2 hours at 37° C.; washing 5 times with PBST, further adding a mouse-anti His IgG-HRP secondary antibody diluted by PBST-4% milk, and incubating for 1 hour at 37° C.; developing by using the TMB developing kit (100 μl/well), developing for 10 minutes at the room temperature, and terminating developing with 2M H₂SO₄ (50 μl/well); reading numbers by using the microplate reader at 450 nm and 630 nm; analyzing data and drawing pictures by using software GraphPad Prism 5 Demo, and results are shown in FIG. 9 and table 3.

PCSK9 [3] = target: T2, PCSK9 (UniProt Q8NBP7 31-692, limits assumed); assay: cell-based or functional assay
PCSK9 [4] = target: T2, PCSK9; assay: SPR BIAcore X100, antibody captured by goat anti-human IgG on CM5, PCSK9 as analyte

T1 sequence (Q8NBP7 31-692 limits assumed): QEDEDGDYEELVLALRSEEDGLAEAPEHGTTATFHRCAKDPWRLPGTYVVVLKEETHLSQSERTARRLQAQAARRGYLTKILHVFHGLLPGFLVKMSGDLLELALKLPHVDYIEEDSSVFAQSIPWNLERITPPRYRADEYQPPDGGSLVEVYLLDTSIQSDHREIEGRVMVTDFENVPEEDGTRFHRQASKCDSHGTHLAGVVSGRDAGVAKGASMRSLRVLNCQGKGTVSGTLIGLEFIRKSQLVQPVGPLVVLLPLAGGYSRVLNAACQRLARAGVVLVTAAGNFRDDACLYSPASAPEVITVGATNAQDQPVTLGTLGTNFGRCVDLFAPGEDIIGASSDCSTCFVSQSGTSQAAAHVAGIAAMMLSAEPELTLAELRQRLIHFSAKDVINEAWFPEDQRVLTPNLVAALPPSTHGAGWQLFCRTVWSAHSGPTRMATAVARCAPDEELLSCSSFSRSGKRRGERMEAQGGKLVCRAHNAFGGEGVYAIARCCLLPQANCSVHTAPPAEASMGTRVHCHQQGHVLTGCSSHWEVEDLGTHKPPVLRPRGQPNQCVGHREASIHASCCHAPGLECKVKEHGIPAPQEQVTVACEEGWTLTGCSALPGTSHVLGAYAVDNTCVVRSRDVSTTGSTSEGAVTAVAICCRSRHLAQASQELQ
T2 sequence (Q8NBP7 31-692 limits assumed): as above

B1: DFSK9-13 complete antibody (antibody, V domains shown)
VH: QVQLVQSGAEVKKPGASVKVSCKASGYSLTSYGISWVRQAPGQGLEWMGWVSFYQGNTNYAQKLQGRGTMTTDPSTSTAYMELRSLRSDDTAVYYCARGYGMTVWGQGTTVTVSS
VL: DIQMTQSPSSLSASVGDRVTITCRASQDVDSWLTWYQQKPGKAPKLLIYGASNLASGVPSRFSGSGSGTDFTLTISSLQPEDFATYYCQQDSKIPLTFGQGTKVEIK
- EC50 (PCSK9-His [1]): 0.0835 µg/mL
- IC50 (PCSK9-His [2]): 0.383 µg/mL
- EC50 value of bioactivity testing (BODIPY-LDL uptake in HepG2 cells, RFU) (PCSK9 [3]): 29.6 nmol/L
- Kd (PCSK9 [4]): 0.052 nM
- koff (PCSK9 [4]): 2.99e-05 s⁻¹
- kon (PCSK9 [4]): 575000 M⁻¹ s⁻¹

B3: DFSK9-12 complete antibody (antibody, V domains shown)
VH: B1 VH with S28T, L29V, V51L, Q55N, G101S, M102L, T103D
VL: B1 VL with D28S, D30R, S31N, T34D, N53T, A55E, S92N, K93D
- EC50 (PCSK9-His [1]): 0.0646 µg/mL
- IC50 (PCSK9-His [2]): 0.266 µg/mL
- Kd (PCSK9 [4]): 0.119 nM
- koff (PCSK9 [4]): 4.98e-05 s⁻¹
- kon (PCSK9 [4]): 418000 M⁻¹ s⁻¹

B4: DFSK9-20 complete antibody (antibody, V domains shown)
VH: B1 VH with Q55N, T58S, Y100F, T103D, V104R
VL: DIQMTQSPSSLSASVGDRVTITCRASQNINNWLNWYQQKPGKAPKLLIYGASTRPTGVPSRFSGSGSGTDFTLTISSLQPEDFATYYCQQWDDTPNTFGQGTKVEIK
- EC50 (PCSK9-His [1]): 0.0337 µg/mL
- IC50 (PCSK9-His [2]): 0.216 µg/mL
- EC50 value of bioactivity testing (BODIPY-LDL uptake in HepG2 cells, RFU) (PCSK9 [3]): 17.9 nmol/L
- Kd (PCSK9 [4]): 0.0157 nM
- koff (PCSK9 [4]): 1.45e-05 s⁻¹
- kon (PCSK9 [4]): 925000 M⁻¹ s⁻¹

B5: DFSK9-16 complete antibody (antibody, V domains shown)
VH: B1 VH with S28T, L29V, Y100F, T103D, V104R
VL: B4 VL with N31S, T53S, P55Q, T56S, D92F, T94V, N96T
- EC50 (PCSK9-His [1]): 0.0562 µg/mL
- IC50 (PCSK9-His [2]): 0.282 µg/mL
- EC50 value of bioactivity testing (BODIPY-LDL uptake in HepG2 cells, RFU) (PCSK9 [3]): 23.8 nmol/L
- Kd (PCSK9 [4]): 0.0461 nM
- koff (PCSK9 [4]): 5.61e-05 s⁻¹
- kon (PCSK9 [4]): 1.22e+06 M⁻¹ s⁻¹

B7: DFSK9-14 complete antibody (antibody, V domains shown)
VH: B1 VH with Q55N, N57Q, T103S, V104I
VL: B4 VL with N31S, T53S, P55Q, T56S, D92F, T94V, N96T
- EC50 (PCSK9-His [1]): 0.0422 µg/mL
- IC50 (PCSK9-His [2]): 0.146 µg/mL
- EC50 value of bioactivity testing (BODIPY-LDL uptake in HepG2 cells, RFU) (PCSK9 [3]): 16.6 nmol/L
- Kd (PCSK9 [4]): 0.0293 nM
- koff (PCSK9 [4]): 7.9e-05 s⁻¹
- kon (PCSK9 [4]): 2.7e+06 M⁻¹ s⁻¹

B9: DFSK9-19 complete antibody (antibody, V domains shown)
VH: B1 VH with S52T, Q55N, Y100F, M102L, T103S
VL: B4 VL with I29V, G50A, P55E, W91D, D92N, T94M, N96L
- EC50 (PCSK9-His [1]): 0.0832 µg/mL
- IC50 (PCSK9-His [2]): 0.533 µg/mL
- Kd (PCSK9 [4]): 0.186 nM
- koff (PCSK9 [4]): 7.34e-05 s⁻¹
- kon (PCSK9 [4]): 395000 M⁻¹ s⁻¹

B11: DFSK9-1 complete antibody (antibody, V domains shown)
VH: QVQLVQSGAEVKRPGASVKVSCKASGGTFTNNAISWVRQAPGQGLEWMGRIIPMFGMANYAQKLQGRGTMTTDPSTSTAYMELRSLRSDDTAVYYCAREGIPMIWGQGTTVTVSS
VL: DIQMTQSPSSLSASVGDRVTITCRASQSIDNRLTWYQQKPGKAPKLLIYDASSRQSGVPSRFSGSGSGTDFTLTISSLQPEDFATYYCQQPENDPTTFGQGTKVEIK
- EC50 (PCSK9-His [1]): 0.171 µg/mL
- IC50 (PCSK9-His [2]): 0.847 µg/mL
- Kd (PCSK9 [4]): 0.175 nM
- koff (PCSK9 [4]): 9.19e-05 s⁻¹
- kon (PCSK9 [4]): 518000 M⁻¹ s⁻¹

Now those with a lower Kd (PCSK9 [4]), led by results:

- EC50 (PCSK9-His [1]): 0.0339 µg/mL
- IC50 (PCSK9-His [2]): 0.107 µg/mL
- EC50 value of bioactivity testing (BODIPY-LDL uptake in HepG2 cells, RFU) (PCSK9 [3]): 23.9 nmol/L
- Kd (PCSK9 [4]): 0.00389 nM
- koff (PCSK9 [4]): 1.99e-06 s⁻¹
- kon (PCSK9 [4]): 512000 M⁻¹ s⁻¹
B2: DFSK9-18 complete antibody (antibody, V domains shown)
VH: B1 VH with S28T, L29V, Q55N, T58S, G101S, M102L, T103D
VL: B4 VL with N31S, T53S, P55Q, T56S, D92F, T94V, N96T

- EC50 (PCSK9-His [1]): 0.0282 µg/mL
- IC50 (PCSK9-His [2]): 0.161 µg/mL
- EC50 value of bioactivity testing (BODIPY-LDL uptake in HepG2 cells, RFU) (PCSK9 [3]): 20.3 nmol/L
- Kd (PCSK9 [4]): 0.00716 nM
- koff (PCSK9 [4]): 4.24e-06 s⁻¹
- kon (PCSK9 [4]): 592000 M⁻¹ s⁻¹
B6: DFSK9-21 complete antibody (antibody, V domains shown)
VH: B1 VH with Q55N, N57Q, Y100F, T103D, V104R
VL: B4 VL
notes: also called DF5K9-21

- EC50 (PCSK9-His [1]): 0.0397 µg/mL
- IC50 (PCSK9-His [2]): 0.114 µg/mL
- EC50 value of bioactivity testing (BODIPY-LDL uptake in HepG2 cells, RFU) (PCSK9 [3]): 15.3 nmol/L
- Kd (PCSK9 [4]): 0.00875 nM
- koff (PCSK9 [4]): 4.75e-06 s⁻¹
- kon (PCSK9 [4]): 542000 M⁻¹ s⁻¹
B8: DFSK9-15 complete antibody (antibody, V domains shown)
VH: B1 VH with S28T, L29V, Q55N, N57Q, G101S, M102L, T103D
VL: B4 VL

- EC50 (PCSK9-His [1]): 0.0314 µg/mL
- IC50 (PCSK9-His [2]): 0.089 µg/mL
- EC50 value of bioactivity testing (BODIPY-LDL uptake in HepG2 cells, RFU) (PCSK9 [3]): 18.5 nmol/L
- Kd (PCSK9 [4]): 0.00156 nM
- koff (PCSK9 [4]): 1.84e-06 s⁻¹
- kon (PCSK9 [4]): 1.18e+06 M⁻¹ s⁻¹
B10: DFSK9-17 complete antibody (antibody, V domains shown)
VH: B1 VH with S28T, L29V, Q55N, T58S, G101S, M102L, T103D
VL: B4 VL
